Consider one molecule from US20200317768A1 (published 2020).

For experiment [1], the target named is T1, cynomolgus monkey FcγRIIa3 extracellular domain, C-terminal His-tag (cynomolgus monkey).
T1 construct: also called cyno FcγRIIa3; cynoFcgRIIa3; not shown: His-tag added to C-terminus
T1 chain: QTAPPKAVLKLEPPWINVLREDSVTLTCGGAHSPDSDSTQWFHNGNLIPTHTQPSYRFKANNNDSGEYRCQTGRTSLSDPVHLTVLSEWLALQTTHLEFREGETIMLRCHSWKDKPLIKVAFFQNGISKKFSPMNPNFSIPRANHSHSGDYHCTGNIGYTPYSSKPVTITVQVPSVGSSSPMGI
Put plainly: SPR (BIACORE); KD of parent SG1 / KD of variant.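 Note: relative to parent M103205H795-SG1 carrying the SG1 human heavy chain constant region.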 Background: SPR reads the build-up and loss of mass on a sensor chip optically.

In experiment [2] the target is T2, human FcγRIIIaV extracellular domain, C-terminal His-tag (human, UniProt P08637 17-208).
T2 construct: also called FcgRIIIaV; not shown: His-tag added to C-terminus
T2 sequence (P08637 17-208 F176V): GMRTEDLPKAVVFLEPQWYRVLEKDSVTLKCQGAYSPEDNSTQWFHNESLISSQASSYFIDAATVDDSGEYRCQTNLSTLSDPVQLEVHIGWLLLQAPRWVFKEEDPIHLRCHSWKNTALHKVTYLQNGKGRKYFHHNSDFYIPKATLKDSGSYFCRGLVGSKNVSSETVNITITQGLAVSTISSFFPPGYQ
Put plainly: SPR (BIACORE); KD of parent SG1 / KD of variant.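 Note: relative to parent M103205H795-SG1 carrying the SG1 human heavy chain constant region.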

Experiment [3] has as its target T1, cynomolgus monkey FcγRIIa3 …. The experiment can be described thus: SPR (BIACORE), antibody captured, FcγR analyte.
Experiment [4] concerns the target T3, human FcγRIIaH extracellular domain, C-terminal His-tag (human, UniProt P12318 34-217).
T3 construct: also called human FcγRIIa (type H); FcgRIIaH; not shown: His-tag added to C-terminus
T3 sequence: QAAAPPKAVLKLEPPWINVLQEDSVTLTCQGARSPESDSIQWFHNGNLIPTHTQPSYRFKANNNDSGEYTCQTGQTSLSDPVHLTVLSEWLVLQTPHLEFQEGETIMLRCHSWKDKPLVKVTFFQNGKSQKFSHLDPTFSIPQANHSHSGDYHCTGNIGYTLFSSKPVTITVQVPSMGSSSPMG
Put plainly: SPR (BIACORE), antibody captured, FcγR analyte.

Experiment [5] addresses T4, human FcγRIIaR extracellular domain, C-terminal His-tag (human, UniProt P12318 34-217).
T4 construct: also called human FcγRIIa (type R); FcgRIIaR; not shown: His-tag added to C-terminus
T4 chain: T3 sequence with H134R
The experiment can be described thus: SPR (BIACORE), antibody captured, FcγR analyte.

The target in experiment [6] is T5, human FcγRIIb extracellular domain, C-terminal His-tag (human, UniProt P31994 43-217).
T5 construct: also called humanFcgRIIb; not shown: His-tag added to C-terminus
T5 sequence: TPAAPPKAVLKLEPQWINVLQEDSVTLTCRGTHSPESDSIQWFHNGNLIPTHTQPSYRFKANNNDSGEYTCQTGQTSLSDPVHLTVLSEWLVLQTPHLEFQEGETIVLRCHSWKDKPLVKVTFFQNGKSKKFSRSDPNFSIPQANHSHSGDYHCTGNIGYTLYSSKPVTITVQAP
The experiment can be described thus: SPR (BIACORE), antibody captured, FcγR analyte.

The target in experiment [7] is T6, cynomolgus monkey FcγRIIa2 extracellular domain, C-terminal His-tag (cynomolgus monkey).
T6 construct: also called cyno FcγRIIa2; cynoFcgRIIa2; not shown: His-tag added to C-terminus
T6 chain: T1 chain with I127K, K130N, P133H, R142Q
The experiment can be described thus: SPR (BIACORE), antibody captured, FcγR analyte.

Experiment [8] concerns the target T2, human FcγRIIIaV extracellular domain, …. Put plainly: SPR (BIACORE), antibody captured, FcγR analyte.
In experiment [9] the target is T7, cynomolgus monkey FcγRIIa1 extracellular domain, C-terminal His-tag (cynomolgus monkey).
T7 construct: also called cyno FcγRIIa1; cynoFcgRIIa1; not shown: His-tag added to C-terminus
T7 chain: T1 chain with T95P, A121T, S128A, P133H, N135D
The experiment can be described thus: SPR (BIACORE), antibody captured, FcγR analyte.

For experiment [10], the target named is T8, cynomolgus monkey FcγRIIIaS extracellular domain, C-terminal His-tag (cynomolgus monkey, UniProt A3RFZ7 21-206 (rhesus entry)).
T8 construct: also called cyno FcγRIIIaS; cynoFcγRIIIaS; not shown: His-tag added to C-terminus
T8 sequence (A3RFZ7 21-206): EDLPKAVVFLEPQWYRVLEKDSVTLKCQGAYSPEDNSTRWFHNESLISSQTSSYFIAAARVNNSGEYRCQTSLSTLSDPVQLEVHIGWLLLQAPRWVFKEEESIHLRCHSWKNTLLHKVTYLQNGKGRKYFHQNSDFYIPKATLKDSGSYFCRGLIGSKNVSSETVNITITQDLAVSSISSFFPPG
Put plainly: SPR (BIACORE), antibody captured, FcγR analyte.

The target of experiment [11] is T9, cynomolgus monkey FcγRIIb extracellular domain, C-terminal His-tag (cynomolgus monkey).
T9 construct: also called cyno FcγRIIb; cynoFcγRIIb; not shown: His-tag added to C-terminus
T9 chain: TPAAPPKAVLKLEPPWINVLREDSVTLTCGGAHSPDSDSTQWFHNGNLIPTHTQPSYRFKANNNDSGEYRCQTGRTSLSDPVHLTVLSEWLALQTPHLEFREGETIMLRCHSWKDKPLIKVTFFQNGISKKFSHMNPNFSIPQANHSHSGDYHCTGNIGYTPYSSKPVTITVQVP
The experiment can be described thus: SPR (BIACORE), antibody captured, FcγR analyte.

Positions count from the first letter of the chain named.

B1: MS_M103205H795-SG1/M103202L889-SK1 (antibody, human IgG1, kappa)
heavy: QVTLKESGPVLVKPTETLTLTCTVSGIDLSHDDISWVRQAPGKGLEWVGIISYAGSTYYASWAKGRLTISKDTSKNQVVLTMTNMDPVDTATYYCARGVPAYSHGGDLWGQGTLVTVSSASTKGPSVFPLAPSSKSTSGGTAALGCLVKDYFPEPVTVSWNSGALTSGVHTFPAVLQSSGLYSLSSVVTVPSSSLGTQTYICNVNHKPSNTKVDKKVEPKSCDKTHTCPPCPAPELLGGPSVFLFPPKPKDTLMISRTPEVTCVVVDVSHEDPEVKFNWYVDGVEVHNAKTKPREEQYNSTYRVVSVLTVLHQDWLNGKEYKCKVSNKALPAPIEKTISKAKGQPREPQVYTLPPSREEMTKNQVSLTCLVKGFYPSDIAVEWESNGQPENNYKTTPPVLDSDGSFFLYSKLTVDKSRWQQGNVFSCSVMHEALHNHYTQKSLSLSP
light: DIVMTQSPATLSLSPGERATLSCTSSQSVYHANWLSWFQQKPGQPPKLLIYWASTLAYGVPSRFSGSGSGTDFTLTISSLQPEDAATYYCAGGYGGGRYAFGQGTKVEIKRTVAAPSVFIFPPSDEQLKSGTASVVCLLNNFYPREAKVQWKVDNALQSGNSQESVTEQDSKDSTYSLSSTLTLSKADYEKHKVYACEVTHQGLSSPVTKSFNRGEC
notes: Parent antibody with SG1 human heavy chain constant region; also called MS1032LO06-SG1
On to B1, for which the “KD fold (SG1 = 1)” value in [1] and in experiment [2] was 1 fold throughout. The Kd (as a rule, the constant that tells how readily two partners part at equilibrium) in experiment [3] is 8.6 µM; in [4], 0.89 µM; in [5] it was 1 µM; in experiment [6], 4.7 µM; in experiment [7] it was 4.7 µM; in [8], 0.62 µM. The values for the dissociation constant (Kd) in [9], in [10] and in experiment [11] were 4.8 µM, 0.28 µM and 1.9 µM, respectively.
